± gives the half width of the 95% confidence interval.

35 sequences from the supplement of paper PMC12764529 can be followed below.

A short description of data set [1]: folding stability dG unfold from trypsin proteolysis; higher = more stable. A digest of the protocol: (§1)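 Designed mini-proteins with no cysteine and under 80 residues were kept only if AlphaFold2 dimer inter-PAE was above 15. In a PA-tagged cDNA display construct, they were digested with trypsin and chymotrypsin and then sequenced. K50 was inferred by Bayesian fitting of counts, and unfolding free energy was derived per protease or combined against a sequence-predicted unfolded-state K50 and a shared folded-state K50.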

The nature of data set [2]: folding stability dG unfold from chymotrypsin proteolysis; higher = more stable. A digest of the protocol: as §1
The nature of data set [3]: folding stability dG unfold (combined trypsin and chymotrypsin); higher = more stable. A digest of the protocol: as §1

“SAGGMGISTEPEISFERKTLPDGTYVLEIHTTTTTTDSSGVVTTTTSTKTVKFSPDNPEKIKELIEALSAGG [r13_412_JUSTAS]”: the figures for the “folding stability dG unfold” value in data set [1], in data set [2] and in data set [3] were 2.67 ± 0.098 kcal/mol, 2.51 ± 0.058 kcal/mol and 2.54 ± 0.14 kcal/mol, respectively.
For “SAGGMGRARLYELEIEVDLHPDETIEGALRRLLGLREDEEILEVEAEVDPVNGKVRIRAVVLVRDPETSAGG [r13_828_TrMRF]” the same measures were 2.47 ± 0.087 kcal/mol, 4.22 ± 0.032 kcal/mol and 3.85 ± 0.081 kcal/mol.
Turning to “SAGGMIKIEVEKKDDKLIIRIEVDGKKYEIEIPKDMTLEEALKKALEELKEKFPGKKIKIKKVEIFKPSAGG [r13_884_TrROS_Hall]”, the entries for the “folding stability dG unfold” value in data set [1], in data set [2] and in data set [3] were 3.22 ± 0.21 kcal/mol, 2.21 ± 0.088 kcal/mol and 2.36 ± 0.28 kcal/mol, respectively.
With “SAGGMIKVEVEPLEDGVLRVRVYVPHPDGPPIEIEVVFPPEVGSLEEALEKAVEVVEEFLKKHNIPLSAGGS [r8_464_TrMRF]”, the “folding stability dG unfold” value is 2.25 ± 0.082 kcal/mol in data set [1], 2.22 ± 0.065 kcal/mol in data set [2] and 2.36 ± 0.1 kcal/mol in data set [3].
For “SAGGMILEIEFPPELIEELLEKLKKEFPDVEVKPLKIEYDPETGLVKVPILVKTKNPEEVEKIKKLAASAGG [r13_539_TrMRF]”, the “folding stability dG unfold” value in data set [1] is 2.91 ± 0.15 kcal/mol; in data set [2] it was 2.78 ± 0.091 kcal/mol; in data set [3], 2.83 ± 0.11 kcal/mol.
For “SAGGMILKITIPKEDEEKAKELADELAKKLEEETGKPIKVKVKVEKNENGELTIVIEVDGKKIEIKLSAGGS [r16_356_TrROS_Hall]” the same measures were 1.32 ± 0.091 kcal/mol, 0.444 ± 0.078 kcal/mol and 0.999 ± 0.27 kcal/mol.
For “SAGGMIRITTEDGEELSEEELAELEEAIRKGDLDEAVKKIEELLRERFGKEIKIKVEVFFPPPPPPESAGGS [r8_48_TrROS_Hall]”, the “folding stability dG unfold” value in data set [1] stood at 3.79 ± 0.26 kcal/mol; in data set [2] it was 3.26 ± 0.092 kcal/mol; in data set [3], 3.59 ± 0.15 kcal/mol.
With “SAGGMIRVEDTSTSVSIDIEITPLPNGQYKATITTTTTSAKLLPNGTPVTTTTPTTSTVTITPDVPLLSAGG [r13_561_JUSTAS]”, the “folding stability dG unfold” value in data set [1] turned out to be 1.47 ± 0.053 kcal/mol; in data set [2] it was 0.681 ± 0.15 kcal/mol; in data set [3] it was 1.12 ± 0.14 kcal/mol.
For “SAGGMITLEIELEDGTKIKIEITRLVSYDEEKGYAIFEAKITVEKDGKKFEKTITIIVKKGTKPGEIISAGG [r13_823_TrROS_Hall]” the same measures were 4.45 ± 0.43 kcal/mol, 4.01 ± 0.25 kcal/mol and 4.19 ± 0.38 kcal/mol.
For “SAGGMITLPIPLEEAEKLLKELTPDGGDVTTTPLGSLDGEVLYEVTITPPETGNTVTVKVLVPKGRGSAGGS [r16_486_JUSTAS]” the same measures were -0.627 ± 0.32 kcal/mol, 0.178 ± 0.11 kcal/mol and 0.0837 ± 0.16 kcal/mol.
For the sequence “SAGGMITLTTKTELIGSYRVTYSVTVDPVDDSVVTSTHVTVTPLPPPPPPLPPVPPENPVLPSPRLESAGGS [r8_234_JUSTAS]”, the “folding stability dG unfold” value in data set [1] was 0.355 ± 0.15 kcal/mol; in data set [2], 0.56 ± 0.42 kcal/mol; in data set [3] it was 0.608 ± 0.2 kcal/mol.
As for “SAGGMITTSTLSDGTTVVTIRVPGSPEEADAVAEEVREALLAAGYRTVEVSREPVEDGWVVTITTVSSAGGS [r8_113_JUSTAS]”, the entries for the “folding stability dG unfold” value in data set [1], in data set [2] and in data set [3] were 3.28 ± 0.063 kcal/mol, 3.888 ± 0.029 kcal/mol and 3.711 ± 0.031 kcal/mol, respectively.
As to “SAGGMIVLEFPDGKIVFVEPVSEFTTPDGKKVRLVKVIVTDPLTGKSTIIEREVLPGGGVKEKVTPESAGGS [r16_651_JUSTAS]”, the “folding stability dG unfold” value in data set [1] turned out to be 1.89 ± 0.042 kcal/mol; in data set [2], 1.32 ± 0.043 kcal/mol; in data set [3], 1.49 ± 0.13 kcal/mol.
As for “SAGGMKEIAKALGIKPEDVKIEEEEIEVNGKKVKKIKITVKDKKTKKEYKIELTIVYDKNGKIVKIELSAGG [r13_358_TrROS_Hall]”, the results for the “folding stability dG unfold” value in data set [1], in data set [2] and in data set [3] were 3.61 ± 0.15 kcal/mol, 4.72 ± 0.28 kcal/mol and 4.63 ± 0.57 kcal/mol, respectively.
In the same order, the values of “SAGGMKIEVEVSDSDIESAAERIAKEVYEKIKAEGKNEDVEVTLTLPNGTRYRIVVDGKGNVKEIIESSAGG [r13_965_JUSTAS]” are 3.07 ± 0.17 kcal/mol, 3.79 ± 0.16 kcal/mol and 3.74 ± 0.25 kcal/mol.
“SAGGMKIIEIEYDEETGKYKFKIKIYDKKTGKLYEIEVEVDKKTGKLSIEEIAKKIAEKLGLPKDIKISAGG [r13_362_TrROS_Hall]”: the entries for the “folding stability dG unfold” value in data set [1], in data set [2] and in data set [3] were 2.8 ± 0.17 kcal/mol, 4.03 ± 0.062 kcal/mol and 3.69 ± 0.3 kcal/mol, respectively.
In the same order, the values of “SAGGMKIKIEIEPEGDVVKVKIEIELPEGKVEVVEEEEAEVFEDGKIKVRFRVRRKDGPEFEFELDISAGGS [r8_449_TrMRF]” are 3.49 ± 0.17 kcal/mol, 4.41 ± 0.2 kcal/mol and 4.17 ± 0.18 kcal/mol.
As for “SAGGMKIKIEVIDPDGKKRVIEIDASTPEEIKAALDALPPGAVVRIVVPSPELREALKEAGVDEVVELSAGG [r13_476_TrROS_Hall]”, the “folding stability dG unfold” value in data set [1] is 4.37 ± 0.23 kcal/mol; in data set [2], 2.77 ± 0.069 kcal/mol; in data set [3], 3.87 ± 0.2 kcal/mol.
For “SAGGMKITITLTVKNEELLEELKKLAEELGLKVKIEVKYDEETNELTVTVEIELPPPPEEPSEEELKSAGGS [r16_262_TrROS_Hall]” the same measures were 2.49 ± 0.12 kcal/mol, 3.4 ± 0.14 kcal/mol and 3.24 ± 0.15 kcal/mol.
For “SAGGMKITTKDGSTITVETEPGKVTITIKPPGDGSTTTLPFPAPSEEEGIEAAIKKIEEEGNVEEIELSAGG [r13_579_JUSTAS]”, the “folding stability dG unfold” value in data set [1] came out at 0.064 ± 0.1 kcal/mol; in data set [2], 0.591 ± 0.1 kcal/mol; in data set [3] it was 0.491 ± 0.3 kcal/mol.
Consider “SAGGMKKVKALVVANPFDPNKYKVFVKAEEEEKVFEFDPNNPEKIIEELEKLLPEDYKLDEIVFESGASAGG [r13_519_TrMRF]”, for which the “folding stability dG unfold” value turned out to be 0.752 ± 0.032 kcal/mol in data set [1], 2.12 ± 0.058 kcal/mol in data set [2] and 1.74 ± 0.1 kcal/mol in data set [3].
On to “SAGGMKKVRLTLVFESEEEALEALRKALEEAGVEVKVVRVERLPDGRVVVTVEIEVSDEVLEALKAASAGGS [r8_357_TrROS_Hall]”, for which the “folding stability dG unfold” value in data set [1] was 3.77 ± 0.068 kcal/mol; in data set [2], 4.01 ± 0.053 kcal/mol; in data set [3], 3.91 ± 0.056 kcal/mol.
“SAGGMKLEILEKSENRIIIRTDEGKIYIAPEIVKKLKEKGGNIKPTLDEIIEWLEKNNIPAEDAVFGDSAGG [r13_610_TrMRF]”: the “folding stability dG unfold” value in data set [1] came to 0.689 ± 0.028 kcal/mol; in data set [2], 1.11 ± 0.064 kcal/mol; in data set [3], 0.915 ± 0.11 kcal/mol.
In the same order, the values of “SAGGMKLEIYLRFKTEEEAKKAVEELIRKLLEELGLEVEVEVVYDEETKEVYVKVTVTFPELPEEELSAGGS [r8_17_TrROS_Hall]” are 3.67 ± 0.19 kcal/mol, 4.7 ± 0.29 kcal/mol and 4.4 ± 0.39 kcal/mol.
As for “SAGGMKLPENAKVVKKIEIKDEKTGKTFKATIVKNKDGSLYIFIEKDGKIYKFKIENGKIKMEEIPPSAGGS [r16_711_TrROS_Hall]”, the “folding stability dG unfold” value in data set [1] turned out to be 3.75 ± 0.75 kcal/mol; in data set [2], 4.37 ± 0.25 kcal/mol; in data set [3] it was 4.07 ± 0.55 kcal/mol.
With “SAGGMKPGEIVEKITIEIEINGKKYKIEMTFYKDNGIIEIKIYNKNGKLIKTFKFYIDPKTKKIILLSAGGS [r16_798_TrROS_Hall]”, the “folding stability dG unfold” value in data set [1] is 3.66 ± 0.14 kcal/mol; in data set [2], 3.81 ± 0.098 kcal/mol; in data set [3], 3.68 ± 0.34 kcal/mol.
In the same order, the values of “SAGGMKTLTITLTVRNPATQETLTLTITVPEGMSEEELQALLKQLQELVEALLQLPPPPPPPPPELESAGGS [r16_191_TrROS_Hall]” are 3.16 ± 0.12 kcal/mol, 4.25 ± 0.066 kcal/mol and 4.01 ± 0.11 kcal/mol.
As for “SAGGMKTYTVTVEREVPDPSSDKWVYSTETLTIPYNVDPKTGTTPEEVAEELKAALPPDVLRVEFTDESAGG [r13_335_JUSTAS]”, the “folding stability dG unfold” value in data set [1] was -0.166 ± 0.14 kcal/mol; in data set [2], 0.468 ± 0.21 kcal/mol; in data set [3], 0.317 ± 0.13 kcal/mol.
Regarding “SAGGMKVIELTVDEIKELADKLKENKNLKATIYVNGKKVELEFDTVEDALKALKVKPGDTVLIEIEPSAGGS [r16_377_TrROS_Hall]”, the “folding stability dG unfold” value stood at 2.6 ± 0.051 kcal/mol in data set [1], 3.88 ± 0.07 kcal/mol in data set [2] and 3.48 ± 0.068 kcal/mol in data set [3].
As for “SAGGMKVKVEVEITVNGKLVKKLTVEMSVEELKKLIEELLPPGAKVEVKIVEVKVEEVEVYELPEEEKSAGG [r13_491_TrROS_Hall]”, the “folding stability dG unfold” value in data set [1] was determined as 1.81 ± 0.13 kcal/mol; in data set [2], 2.21 ± 0.18 kcal/mol; in data set [3] it was 2.18 ± 0.32 kcal/mol.
With “SAGGMLDLSDVEVLNTVPIGGGNYLVLLKVPKLGKVVVVPASDLKKLKENVPNVKISFTPVAPSESGSAGGS [r16_61_TrMRF]”, the “folding stability dG unfold” value in data set [1] was determined as 0.601 ± 0.025 kcal/mol; in data set [2], 1.3 ± 0.072 kcal/mol; in data set [3], 1.09 ± 0.059 kcal/mol.
In the same order, the values of “SAGGMLEEVAEELAKELNATAREFTTVGDVPRILLTFKVPGSSTYLEVTLTLPPDGSVERTTKPIAASAGGS [r16_433_JUSTAS]” are 0.974 ± 0.047 kcal/mol, 1.7 ± 0.17 kcal/mol and 1.3 ± 0.14 kcal/mol.
“SAGGMLKIEVTVPAEYPEQAEEIAAEIRDLLEAGPYVKVLKVEIEPTEDTVRVTVVVEIEFDSPEELISAGG [r13_39_TrMRF]”: the “folding stability dG unfold” value in data set [1] turned out to be 1.36 ± 0.17 kcal/mol; in data set [2] it was 2.1 ± 0.06 kcal/mol; in data set [3] it was 1.78 ± 0.21 kcal/mol.
As to “SAGGMLLKLPLSSVEIPPDASEEEIEEAKRKLAKPKVVKVTEEVLIEENGIVKKVKVTKYVSLSVEESAGGS [r16_387_JUSTAS]”, the “folding stability dG unfold” value in data set [1] worked out at 0.845 ± 0.082 kcal/mol; in data set [2] it was 0.56 ± 0.29 kcal/mol; in data set [3], 0.87 ± 0.12 kcal/mol.
Consider “SAGGMLPGLRPLLLAVLVPAEEPLEPEQVRELAEELRRELEEKGYGFAFRAIELEDFQLIIVDVVDPFSAGG [r13_442_TrMRF]”, for which the “folding stability dG unfold” value in data set [1] worked out at 2.54 ± 0.051 kcal/mol; in data set [2], 3.429 ± 0.03 kcal/mol; in data set [3] it was 3.11 ± 0.051 kcal/mol.
